Here are results for 2 substances from PMC2749713.

The stoichiometry N is a count of units in the complex or per binding partner.

Assay [1] deals with Sgo1(51-96) peptide (human) (UniProt Q5FBB7). The experiment in a line: crystal structure.
For assay [2], the target named is AB’C PP2A holoenzyme with GST-tagged A subunit (GST-A, B’ and C subunits) (human) (UniProt P30153). Description: pull-down.
Sequence of AB’C PP2A holoenzyme with GST-tagged A subunit (GST-A, B’ and C subunits) (human) (P30153 2-589, chain 1 of 3): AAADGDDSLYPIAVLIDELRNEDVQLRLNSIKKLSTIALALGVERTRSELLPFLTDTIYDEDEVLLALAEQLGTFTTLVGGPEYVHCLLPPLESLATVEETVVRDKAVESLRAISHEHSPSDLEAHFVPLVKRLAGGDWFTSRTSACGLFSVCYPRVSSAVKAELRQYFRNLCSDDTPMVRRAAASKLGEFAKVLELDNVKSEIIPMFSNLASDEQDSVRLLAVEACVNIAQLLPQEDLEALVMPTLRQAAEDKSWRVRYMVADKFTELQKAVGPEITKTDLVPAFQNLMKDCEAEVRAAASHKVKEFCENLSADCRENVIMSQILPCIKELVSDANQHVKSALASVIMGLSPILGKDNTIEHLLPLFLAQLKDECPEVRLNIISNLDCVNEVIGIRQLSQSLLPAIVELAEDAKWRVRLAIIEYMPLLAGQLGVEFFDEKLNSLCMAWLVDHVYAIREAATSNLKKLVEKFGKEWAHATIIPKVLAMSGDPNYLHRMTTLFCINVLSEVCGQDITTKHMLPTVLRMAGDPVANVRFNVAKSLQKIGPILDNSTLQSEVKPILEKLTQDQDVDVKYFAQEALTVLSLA
Sequence of AB’C PP2A holoenzyme with GST-tagged A subunit (GST-A, B’ and C subunits) (human) (Q13362 whole entry, chain 2 of 3, further chain): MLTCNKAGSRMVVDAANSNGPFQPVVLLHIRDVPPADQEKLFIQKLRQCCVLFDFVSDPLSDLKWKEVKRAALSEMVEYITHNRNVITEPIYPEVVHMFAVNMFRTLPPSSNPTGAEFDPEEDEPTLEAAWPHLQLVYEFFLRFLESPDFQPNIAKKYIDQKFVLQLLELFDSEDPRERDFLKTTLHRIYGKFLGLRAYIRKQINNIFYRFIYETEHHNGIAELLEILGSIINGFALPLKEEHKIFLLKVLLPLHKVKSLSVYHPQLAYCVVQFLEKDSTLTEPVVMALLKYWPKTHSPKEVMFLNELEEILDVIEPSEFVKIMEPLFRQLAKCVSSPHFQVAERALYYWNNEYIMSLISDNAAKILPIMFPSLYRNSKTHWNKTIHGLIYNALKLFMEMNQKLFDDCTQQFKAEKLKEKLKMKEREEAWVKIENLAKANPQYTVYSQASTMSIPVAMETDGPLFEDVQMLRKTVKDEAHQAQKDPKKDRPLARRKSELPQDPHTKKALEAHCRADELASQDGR
Sequence of AB’C PP2A holoenzyme with GST-tagged A subunit (GST-A, B’ and C subunits) (human) (P67775 whole entry, chain 3 of 3, further chain): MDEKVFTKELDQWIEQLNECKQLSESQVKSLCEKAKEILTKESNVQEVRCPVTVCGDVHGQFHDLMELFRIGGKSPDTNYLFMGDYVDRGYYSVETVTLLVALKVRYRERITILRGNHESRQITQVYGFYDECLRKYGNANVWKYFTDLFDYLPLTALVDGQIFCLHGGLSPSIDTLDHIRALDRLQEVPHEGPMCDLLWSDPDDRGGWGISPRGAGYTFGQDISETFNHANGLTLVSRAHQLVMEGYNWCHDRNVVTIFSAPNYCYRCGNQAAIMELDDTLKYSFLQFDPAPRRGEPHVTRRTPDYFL

Take “Sgo1(51-96) peptide (from UniProt Q5FBB7 51-96)”: the stoichiometry N in assay [1] is 2. Regarding “MBP-Sgo2(45-117) (from UniProt Q7TSY8 45-117) (domain or fragment)”, the stoichiometry N (Sgo2 per PP2A) in assay [2] turned out to be 2.
